Laboratory results taken from the supplement of paper PMC10724198.
± gives the standard deviation of the averaged measurements.

System: Saccharomyces cerevisiae
Assay: protein stability index of tFT-peptide fusion (C-terminal peptide) (PSI (0-1 scale)); higher = more stable (slower turnover)
Conditions: genetic background: das1 deletion; temperature: 37 C
Experimental: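 MPS profiling in S. cerevisiae of the tFT-X12 degron library: putative degron peptides plus stable controls, 12 aa, fused to the C-terminus of a sfGFP-mCherry timer. Cells are FACS-sorted into 8 mCherry/sfGFP bins and deep-sequenced. PSI runs from 0 (unstable) to 1 (stable). Backgrounds are wild type, das1Δ and doa10Δ at 30 °C, and wild type, das1Δ, cdc34-1 and cdc53-1 at 37 °C; 2-3 technical replicates each.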
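Further: PSI is a weighted mean of sequencing reads over stability bins, variants kept only with over 10 reads, mCherry proximal and sfGFP distal, peptide attached via GGGS linker.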

| Sequence | protein stability index |
| --- | --- |
| FFFFFIHFLCYF | 0.383 ± 0.021 |
| FFFFFLLFFLRV | 0.343 ± 0.018 |
| FFFFLVPVHCVI | 0.452 ± 0.021 |
| FFFFSVHLSFLD | 0.365 ± 0.029 |
| FFFLILFPLSYS | 0.5472 ± 0.0028 |
| FFFLVRLCRLCV | 0.575 ± 0.025 |
| FFIMFFDFWGYF | 0.624 ± 0.075 |
| FFLRFGLFLFTL | 0.564 ± 0.0091 |
| FFSCFFFSVLYR | 0.425 ± 0.031 |
| FFVYRFFSLSVC | 0.247 ± 0.0028 |
| FGCCLYFCFWGL | 0.524 ± 0.0085 |
| FHLVIYWCVRGP | 0.45 ± 0.0086 |
| FICYDRILTVYY | 0.524 ± 0.026 |
| FIVVSFCFFLFF | 0.4351 ± 0.0036 |
| FKFGVFDFRFLC | 0.7617 ± 0.0049 |
| FLFFLFVVFVFV | 0.379 ± 0.0046 |
| FLFFRFLVGCCF | 0.4545 ± 0.0039 |
| FLIFFVCLFRWK | 0.3191 ± 0.0023 |
| FLLLDFMLVSLV | 0.543 ± 0.011 |
| FLLLVVYVSLYS | 0.2973 ± 0.00095 |
| FLLSFFGLVFFW | 0.446 ± 0.0048 |
| FLPLFFLPCLSV | 0.431 ± 0.015 |
| FLSPPPFLALLP | 0.76275 ± 0.00029 |
| FLSRHFLFLSFV | 0.6779 ± 0.0061 |
| FPFHSRPCLPVL | 0.622 ± 0.041 |
| FPTLVRKFINAI | 0.6825 ± 0.0019 |

| Sequence | protein stability index |
| --- | --- |
| FRRSFPFPLFLR | 0.238 ± 0.03 |
| FSCRRISFFLLV | 0.628 ± 0.017 |
| FSPLVCLLFFLF | 0.5725 ± 0.00062 |
| FSRFPFVKLSLV | 0.70163 ± 0.00051 |
| FSSWPFFSFYLS | 0.743 ± 0.026 |
| FSVRLCLFVWGC | 0.4684 ± 0.004 |
| FSYFFIFFYMVC | 0.378 ± 0.038 |
| FVGVVCILWLVG | 0.405 ± 0.0085 |
| FVLFSIFHFFLW | 0.528 ± 0.041 |
| FVLSLGQLVFIF | 0.607 ± 0.018 |
| FVSAFVCLLCLV | 0.615 ± 0.0078 |
| FVSFTVSFSVVV | 0.417 ± 0.01 |
| FVVIFRFSRFSA | 0.512 ± 0.018 |
| FWYIRIRLAVVA | 0.179 ± 0.006 |
| FYIWFFRLIYFF | 0.536 ± 0.019 |
| FYTYILTVAEAL | 0.531 ± 0.013 |
| GALVVSWAEVLC | 0.555 ± 0.0083 |
| GCLSFVAAVHLH | 0.69689 ± 0.00038 |
| GCRLRHRLVRIV | 0.6902 ± 0.0065 |
| GESCGGSERRVG | 0.7352 ± 0.0033 |
| GFGRDHGNDTGP | 0.75 ± 0.0082 |
| GFRVPVVVGVRG | 0.531 ± 0.0077 |
| GFSSRWLMQYMV | 0.747 ± 0.0094 |
| GGGGGGGGGGVG | 0.457 ± 0.057 |
| GGGVGVAVVLFW | 0.53 ± 0.011 |
| GGGVWWGVLVLG | 0.50956 ± 0.00012 |

| Sequence | protein stability index |
| --- | --- |
| GGGWAVLLWVQV | 0.476 ± 0.0087 |
| GGVVGGVGVYDG | 0.748 ± 0.019 |
| GGWGVFGVWVWM | 0.59 ± 0.0025 |
| GGYVTVTSVTVV | 0.605 ± 0.019 |
| GHYQGVCHRRIC | 0.7667 ± 0.0054 |
| GIISMYVARRLG | 0.69833 ± 0.00068 |
| GKVGGRMWVWRV | 0.72579 ± 0.00022 |
| GLGVIFFLLGYG | 0.5631 ± 0.0018 |
| GLLFWSGVVSWV | 0.507 ± 0.0027 |
| GLLVFRCINLRC | 0.5558 ± 0.005 |
| GLPGYAWGRSGG | 0.782 ± 0.012 |
| GLSLVCWIVVLG | 0.347 ± 0.017 |
| GLVVMFVIAGGG | 0.5057 ± 0.00061 |
| GMGRVLVEVLLC | 0.5187 ± 0.0023 |
| GMLIYVIGGLSH | 0.667 ± 0.017 |
| GMMLLRFIIRWY | 0.268 ± 0.0083 |
| GPFVRSALIFIF | 0.603 ± 0.034 |
| GRAVGLANFTIK | 0.735 ± 0.015 |
| GRCGGPRSLGVG | 0.5989 ± 0.001 |
| GSGCLFNRWRIL | 0.733 ± 0.022 |
| GSLLWSGWSTCY | 0.826 ± 0.0092 |
| GSWGGGWRYVGW | 0.7947 ± 0.0036 |
| GTSDLIALLMLT | 0.7058 ± 0.0013 |
| GTWCLAMARFCA | 0.762 ± 0.047 |
| GVFVVVGEASVH | 0.574 ± 0.0029 |
| GVFVWVVFVCTM | 0.3718 ± 0.00094 |

Same assay, conditions: genetic background: doa10 deletion; temperature: 30 C

| Sequence | protein stability index |
| --- | --- |
| FFFFFIHFLCYF | 0.288 ± 0.0065 |
| FFFFFLLFFLRV | 0.313 ± 0.005 |
| FFFFLVPVHCVI | 0.239 ± 0.023 |
| FFFFSVHLSFLD | 0.179 ± 0.0073 |
| FFFLILFPLSYS | 0.3517 ± 0.0033 |
| FFFLVRLCRLCV | 0.266 ± 0.0098 |
| FFIMFFDFWGYF | 0.319 ± 0.0034 |
| FFLRFGLFLFTL | 0.4004 ± 0.0018 |
| FFSCFFFSVLYR | 0.469 ± 0.022 |
| FFVYRFFSLSVC | 0.0301 ± 0.0028 |
| FGCCLYFCFWGL | 0.3524 ± 0.0025 |
| FHLVIYWCVRGP | 0.2623 ± 0.0021 |
| FICYDRILTVYY | 0.369 ± 0.043 |
| FIVVSFCFFLFF | 0.31 ± 0.03 |
| FKFGVFDFRFLC | 0.0716 ± 0.0051 |
| FLFFLFVVFVFV | 0.323 ± 0.015 |
| FLFFRFLVGCCF | 0.29943 ± 0.00022 |
| FLIFFVCLFRWK | 0.21 ± 0.025 |
| FLLLDFMLVSLV | 0.371 ± 0.029 |
| FLLLVVYVSLYS | 0.133 ± 0.0063 |
| FLLSFFGLVFFW | 0.397 ± 0.0073 |
| FLPLFFLPCLSV | 0.315 ± 0.011 |
| FLSPPPFLALLP | 0.691 ± 0.028 |
| FLSRHFLFLSFV | 0.4114 ± 0.0017 |
| FPFHSRPCLPVL | 0.4581 ± 0.0044 |
| FPTLVRKFINAI | 0.0802 ± 0.011 |

| Sequence | protein stability index |
| --- | --- |
| FRRSFPFPLFLR | 0.696 ± 0.04 |
| FSCRRISFFLLV | 0.179 ± 0.011 |
| FSPLVCLLFFLF | 0.32 ± 0.0052 |
| FSRFPFVKLSLV | 0.161 ± 0.0044 |
| FSSWPFFSFYLS | 0.415 ± 0.034 |
| FSVRLCLFVWGC | 0.305 ± 0.0062 |
| FSYFFIFFYMVC | 0.152 ± 0.01 |
| FVGVVCILWLVG | 0.153 ± 0.017 |
| FVLFSIFHFFLW | 0.356 ± 0.0048 |
| FVLSLGQLVFIF | 0.381 ± 0.0082 |
| FVSAFVCLLCLV | 0.357 ± 0.013 |
| FVSFTVSFSVVV | 0.357 ± 0.031 |
| FVVIFRFSRFSA | 0.313 ± 0.0064 |
| FWYIRIRLAVVA | 0.0283 ± 0.0015 |
| FYIWFFRLIYFF | 0.344 ± 0.0048 |
| FYTYILTVAEAL | 0.454 ± 0.0094 |
| GALVVSWAEVLC | 0.372 ± 0.014 |
| GCLSFVAAVHLH | 0.284 ± 0.024 |
| GCRLRHRLVRIV | 0.109 ± 0.048 |
| GESCGGSERRVG | 0.636 ± 0.024 |
| GFGRDHGNDTGP | 0.645 ± 0.021 |
| GFRVPVVVGVRG | 0.2939 ± 0.0024 |
| GFSSRWLMQYMV | 0.326 ± 0.014 |
| GGGGGGGGGGVG | 0.391 ± 0.004 |
| GGGVGVAVVLFW | 0.308 ± 0.011 |
| GGGVWWGVLVLG | 0.262 ± 0.0072 |

| Sequence | protein stability index |
| --- | --- |
| GGGWAVLLWVQV | 0.29 ± 0.01 |
| GGVVGGVGVYDG | 0.65 ± 0.021 |
| GGWGVFGVWVWM | 0.186 ± 0.0072 |
| GGYVTVTSVTVV | 0.499 ± 0.035 |
| GHYQGVCHRRIC | 0.18 ± 0.016 |
| GIISMYVARRLG | 0.149 ± 0.016 |
| GKVGGRMWVWRV | 0.116 ± 0.014 |
| GLGVIFFLLGYG | 0.292 ± 0.019 |
| GLLFWSGVVSWV | 0.225 ± 0.0065 |
| GLLVFRCINLRC | 0.421 ± 0.021 |
| GLPGYAWGRSGG | 0.776 ± 0.037 |
| GLSLVCWIVVLG | 0.1899 ± 0.0016 |
| GLVVMFVIAGGG | 0.2577 ± 0.0014 |
| GMGRVLVEVLLC | 0.0999 ± 0.0047 |
| GMLIYVIGGLSH | 0.438 ± 0.011 |
| GMMLLRFIIRWY | 0.138 ± 0.0027 |
| GPFVRSALIFIF | 0.304 ± 0.0055 |
| GRAVGLANFTIK | 0.65 ± 0.044 |
| GRCGGPRSLGVG | 0.5493 ± 0.0022 |
| GSGCLFNRWRIL | 0.169 ± 0.034 |
| GSLLWSGWSTCY | 0.6696 ± 0.0058 |
| GSWGGGWRYVGW | 0.664 ± 0.037 |
| GTSDLIALLMLT | 0.361 ± 0.026 |
| GTWCLAMARFCA | 0.351 ± 0.025 |
| GVFVVVGEASVH | 0.389 ± 0.021 |
| GVFVWVVFVCTM | 0.167 ± 0.0025 |
